Assay results as given in a protein production outcome set (Wang et al. 2014).

Experiment: label from the status in PepcDB records
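Also: failed if final PepcDB status was selected cloned or expressed and not failed if soluble or beyond.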

| Sequence | protein production |
| --- | --- |
| MGESVRTLSYGSWPSPVDAALAAAHDGRPDDVGFVGDEVWWTAPRPTEGGRRTLVRRHADGTEEPVLPAPWNVRSRVIEYGGRPWGAATTDSGPLVVFVNFADQRLYAFTPGGGEPRPLTPLSAVGGGLRWIEPDPRPERGEVWCVLEEFTGEGPTDVRRVPVAVPLDGSAADDRGAVRELAPERHRFVTGPRLSPDGRRAAWLAWDHPRMPWDGTELIVAEVGPEGTFQAARTVAGGPEESIAQADWAPDGTLLYASDRTGWWNLYRDGRPLCPREEEFGGPLWKLGQRWFAPLDSGLIAVLHGRGAAVLGILDPETGEVVDAAGPWTEFAPALAAHGERVAAVGASPRSGYEVVELDARTGRARVIGAPHEDATDPEFYPRPRIRTFTGPGGREIHAHVYPPHHPGCRAPDGELPPYVIWAHGGPTSRSPLVLDLEIAYFTSRGIGVAEVNYGGSSGHGREYRNRLREQWGVVDVEDCAAVALALADEGTADRARLAVRGGSAGGWTSAASLATTDVYACGTISYPILDLTGWGTGETHDFESQYLESLIGPYAEVPDRYTDRSPAEHAERVTAPFLLLQGLDDVICPPVQCERFLDRMAGRGVPHAYLAFEGEGHGFRRAETMVRALEAELSLYAQVFGLTPPGVPVLELTR | failed |
| MTTILTVFTHAGGAGKTSIAGNIAHEFAQRGQHVLLIDGDPQSNLTTNMGVQDAELHETLFDVLSGDAPLPAPRHVHGFDLIPAVIDLAEVEPSIPGRVGGILALRDALQKESGRWDTVIIDSPPSLGQLAAACALAADALVVPIMTRSKGLNALRGLNRVMPQYHRLRPDLHVAAYVPTMCKSNRKEDSELLGIVREDLPHVTSPIVERGAVWNGAAEKGLPVTVFAPRSKEAEEIRKITSDLVEFLQRNAPERGER | failed |
| MHTARFPSSATPSIFFRYFMALNEQDVARIARLALIELPPDQRGRAQAELNGILHLIERLQAVDTQGVEPLAHPLSAHEDITLRLREDAVSEQATEARRAELLANAPESADGLFLVPKVIE | failed |
| MVDYHYFKSKLNHFYGRYVGYNQRPVFFDIDQTFPELNHITRHFPDIKREFENVQANVKEFPRYHDIDPGESAISNTTEKNWNVFMLYLLGYQLKEARLLCPELCNLLEGIPHLIQAFFSILEPGKSIPLHEGPYIGYLRYHLGIHVPQNNPPQILVNNQTYTWKEGEAVLFDDSWPHEVRNTSDDYRAVLIIDVLRPMPFLPQLVNQFVTHVIARYFYGRKVMKRAMQYGGEVKPLALLEHHHHHH | failed |
| MVVNKRLILILLFILNTAKSDELSWKGNDFTLYARQMPLAEVLHLLSENYDTAITISPLITATFSGKIPPGPPVDILNNLAAQYDLLTWFDGSMLYVYPASLLKHQVITFNILSTGRFIHYLRSQNILSSPGCEVKEITGTKAVEVSGVPSCLTRISQLASVLDNALIKRKDSAVSVSIYTLKYATAMDTQYQYRDQSVVVPGVVSVLREMSKTSVPTSSTNNGSPATQALPMFAADPRQNAVIVRDYAANMAGYRKLITELDQRQQMIEISVKIIDVNAGDINQLGIDWGTAVSLGGKKIAFNTGLNDGGASGFSTVISDTSNFMVRLNALEKSSQAYVLSQPSVVTLNNIQAVLDKNITFYTKLQGEKVAKLESITTGSLLRVTPRLLNDNGTQKIMLNLNIQDGQQSDTQSETDPLPEVQNSEIASQATLLAGQSLLLGGFKQGKQIHSQNKIPLLGDIPVVGHLFRNDTTQVHSVIRLFLIKASVVNNGISHGLEHHHHHH | not failed |
| PKTGPTMTKELVFSSNIGQHDLDTKSKQIQQWIEKKYHVQVTIKRRKDAEQSEEETEEIFNQILQTMPDIATFSSRPKAIRGGTASMCVFRHLSKKEEK | not failed |
| MFGLSKRAITILFGLLALAFALGAILLFTPQAGQQTRGKPVLWVNGKALYELDLLRLQGNDPLYAASPEGLLKTLVDTYFLEQVILTEALKQDAARVRVSSAEVRQEVNRIREQFGLKDKAAYEQFLNQVGYTDAQLRAEVKTQLQIQKRLEQIRSGAKPTEEEVRFYYEVFKENYRTEPRVKARQIVVDDKALAEELAAKAKAGEDFAALARQHSKVGAEQGGALGAGPGEAEPKPVTQVVFPTEVGEAVFALKGPGVVGPIAAGGRYYIVKVEEYLPSTLPAFEEVKDRVAQDAERAKGNGVLEAYLEELRKKAQVRFAEDNPYAYQNPPVAKVNEKEILLSEVLQPVFSNQQTVALVQQGLGELAVQFFLPQTLENLIDRELLVEAARKSGKPFIGSKAEIAEAYLRYETRDVTASEEEARAFYSENPALFTVPASAKVIGVNFKEEAQAKAFRAAALRGGDLEALAKAQEGTVTDYGTVNPNQLPAVLDRLVFKITETFPQGPLGEVSEVIKMEDGSYTVLLISDRKAEELKGFAQVAEEARQGAVNRKRSEKAQALIQALREEAKIENRLAEVLQALTPKTPSQDQPNSQEQPQPEEAPANNP | failed |
| MRFRQLLPLFGALFALYIIWGSTYFVIRIGVESWPPLMMAGVRFLSAGMLLMAFLLLRGEKLPPLRQTINAALIGLLLLAVGNGLVTVAEHQNVPSGIAAVVVATVPLFTLCFSYFFGIKTRKLEWVGIAIGLAGIILLNSGGNLSGNPWGAILILIGSMSWAFGSVYGSRIALPVGMMAGAIEMLAAGVVLLCAAFLSGEKLATLPGLSGLMAVGYLALFGSIIAINAYMYLIRNVSPALATSYAYVNPVVAVLLGTGLGGERLSPVEWAALGVIVFAVVLVTLGKYLFPARAVVTPCKTEDSRQ | failed |
| MLGSTDLVLLGKVVATHGIRGQLSVVPFSGEFSTILSMQTVYLSGPDNRKESFEVDRAAVHRNRVLLTLKGFANINEVLHLVGRELFARRDQFPPLDEGEFYWCDLIGLSVTTSEGLSLGRIEEIIATGSNDVYVVRDGEREYLIPALEDIVVGVDLDKGIMTVSPTEGLLDLLEHHHHHH | not failed |
| HYIFPHARIKITRDSKDHTVSGNGLGIRIVGGKEIPGHSGEIGAYIAKILPGGSAEQTGKLMEGMQVLEWNGIPLTSKTYEEVQSIISQQSGEAEICVRLDLNM | not failed |
| MFQPVTQKRLTNVSVVRMRKGGKRFEIACYPNMVMAYREGHVRDLDEVIQVEDVFENVSKGKLAANADLERCFGTRDRHAVLLQILLHGDLQVSDRERQYQSTRKLHEIASVVAAKTISRETKKPLPVGLIEKALREIHFAVQPNRPAKAQALEVIPLLRAQSGLDLERARLRLRIHVPSQRDAKAVKARLEPLQQGETDGTHSSSRSDSVRMKDGSAAVESESEEWLPGGALLWTVQADPGAFREIEEIVQRETNQQGIVEVASLRVLDDEDESILS | failed |
| MDTMRSLRFISAEALVSHPQVARQSLDSVAHNLYPLLFKASYLLEQAEVTRAVLGRWPLEEFRLGALLGPGADHPQDLRDRTCRACLEALVRGLADHVLQDRSRRRLRVADLTGIRDVQVQRCPCGRALGRWGRTQLLARTCCELQAEPLAAGRPVEVLADLFVTEGNFEAVVQALRPAGPAPLRVHCPSFRADSLSPSQLLHVLRLAGPGALRKLEVVHNVRLHAGHVQQLLAQVGFPRLASLTLPTKAFDAPPTYASTPDGEDPLLASIARELSKMAQLTELSVAFSTLTGKIPTLLGPLQTPLRVLDLANCALNHTDMAFLADCAHAAHLEVLDLSGHNLVSLYPSTFFRLLSQASRTLRILTLEECGIVDSHVGMLILGLSPCHRLRQLKFLGNPLSARALRRLFTALCELPELRCIEFPVPKDCYPEGAAYPQDELAMSKFNQQKYDEIAEELRAVLLRADREDIQVSTPLFGSFDPDIQETSNELGAFLLQAFKTALENFSRALKQIE | failed |
| LIKRMNAEELLHEKIEFNDLLLRSVENPIFWRDSRGFLIDCNAQFTRLLGISKDRLVGRSVYDICGDLHTPVLEGLLTKVLQGEGEQYDIDFKNHEGETLSFLVQASEYHDKSEKVAGVVTILFDMT | failed |
| MIAPSRNLLLCNKGKTELNHSFSMLQAIVESTPYGLLVTNKHGHLLCYNQPYMDMWRIPPEVMVNARHQIIFGHYSSQLRDPQQFLHSTEVIYGTWLPESFDILEFLDGRAFERHTKATTLEGPNMVRVWSFKDITERRQAEAYKAQLAAMVESSDDAIIVKDLNAIITSWNAGAERIFGYQASEITGSSILALIPPERHEEEKGIMSLVKSGNRVDHFETMWWGKGKKPIDVSVTTSAVKDSDGNIVGISQIARDITKRKESQKRIEYLAHYDPLTGLPNRALLADRMKTAIENAKRYSFQLAVLFVDLDHFKLINDSLGHEIGDKLLKIVAERMRSRLRQTDTVSRLGGDEFIILLSRINAASDAACVAEKIIAALSQPYHLEQHELGLGASIGISIYPDSGKDTSSLLRSADEAMYSAKGQGRNRYHGP | failed |
